This note sets out measurements from patent publication US10253109 (BLOODWORKS, dated 2019).

Positions count from the first letter of the chain named.

Assay [1] concerns the target T1, human Kell glycoprotein transgene (KEL1, Kp^b, Js^b variants) on murine RBCs (human, UniProt P23276 1-732).
T1 construct: whole, on cells; also called KELL glycoprotein transgenic murine RBCs; KEL1+RBCs
T1 sequence (looked up): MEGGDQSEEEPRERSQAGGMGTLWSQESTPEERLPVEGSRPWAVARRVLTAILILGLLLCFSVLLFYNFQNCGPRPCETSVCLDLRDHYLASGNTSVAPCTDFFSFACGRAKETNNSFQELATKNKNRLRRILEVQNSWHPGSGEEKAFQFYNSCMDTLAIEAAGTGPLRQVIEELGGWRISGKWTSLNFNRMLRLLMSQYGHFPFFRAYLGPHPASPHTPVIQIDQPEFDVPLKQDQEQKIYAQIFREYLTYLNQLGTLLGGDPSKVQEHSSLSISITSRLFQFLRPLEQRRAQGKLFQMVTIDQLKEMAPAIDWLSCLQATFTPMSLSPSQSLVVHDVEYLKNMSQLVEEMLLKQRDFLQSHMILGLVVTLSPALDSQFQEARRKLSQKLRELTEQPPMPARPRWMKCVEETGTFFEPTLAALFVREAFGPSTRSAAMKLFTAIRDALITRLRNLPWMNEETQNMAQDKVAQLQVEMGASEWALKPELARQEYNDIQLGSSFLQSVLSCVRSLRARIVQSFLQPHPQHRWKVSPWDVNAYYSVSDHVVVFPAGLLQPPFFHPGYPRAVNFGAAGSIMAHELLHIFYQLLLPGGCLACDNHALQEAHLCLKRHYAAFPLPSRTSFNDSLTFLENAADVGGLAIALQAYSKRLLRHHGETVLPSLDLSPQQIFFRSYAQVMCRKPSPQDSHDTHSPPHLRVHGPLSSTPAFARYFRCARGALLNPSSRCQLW
In words: flow cytometry, indirect immunofluorescence on transgenic murine RBCs. How it is done:
(§1) The specificities of the antibodies are shown in FIGS. 7A, 7B, 8A, 8B, 9A-9C, and 10A-10I. The specificities of the antibodies were determined to be: PUMA1/2 (KEL1 or K), PUMA 3 (a common Kell epitope, PUMA 4 (KEL4 or Kp^b). Flow cytometry was utilized to test antibody specificity by indirect immunofluorescence, using the monocolonal antibodies as the primary reagent and a goat-anti-mouse antibody (conjugated to allophycocyanin) as a secondary antibody. Different target cells expressing different Kell variants were used to determine specificity. Targets included RBCs that phenotyped as homozygous for the 3 main antithetical antigens in the Kell system, K/K, k/k, Kp^b/Kp^b, Kp^a/Kp^a, Js^b/Js^b, Js^a/Js^a. Differential binding to such tarets tests specificity. In the case of PUMA ½, binding was only observed when K was present but not on k/k RBCs. In the case of PUMA 3, binding was observed on all RBCs regardless of phenotype for K/k, Kp^a/Kp^b, or Js^a/Js^b, thus indicating a common epitope outside these systems. However, PUMA 3 bound to only KELL glycoprotein transgenic murine RBCs and not wild-type murine RBCs; thus, the epitope recognized by PUMA 3 is on the KELL molecule, but not K/k, Kp^a/Kp^b, or Js^a/Js^b. For PUMA 4, binding was only observed when Kp^b was present but not on Kp^a/Kp^a RBCs.

The target in assay [2] is T2, human Kell glycoprotein, K (KEL1) form (human, UniProt P23276 1-732).
T2 construct: whole, on cells; also called K form of the Kell glycoprotein; K/K RBCs
T2 sequence (looked up): T1 sequence (looked up)
Briefly: flow cytometry, indirect immunofluorescence on K/K RBCs. How it is done:
as §1
On the technique in general: Flow cytometry measures light scatter and fluorescence of single cells or particles in a stream.

Assay [3] concerns the target T3, human Kell glycoprotein, k (KEL2) form (human, UniProt P23276 1-732).
T3 construct: also called k form; k/k RBCs
T3 sequence: T1 sequence (looked up) with M193T
Briefly: flow cytometry, indirect immunofluorescence on k/k RBCs. How it is done: as §1

In assay [4] the target is T4, human Kell glycoprotein, Kp^a (KEL3) form (human, UniProt P23276 1-732).
T4 construct: whole, on cells; also called Kp^a/Kp^a RBCs
T4 sequence (looked up): T1 sequence (looked up) with M193T, R281W
Briefly: flow cytometry, indirect immunofluorescence on RBCs. How it is done: as §1

For assay [5], the target named is T1, human Kell glycoprotein transgene …. Briefly: in vivo, passive immunization of mice and transfusion of KEL1+ RBCs. How it is done:
The ability of PUMA1 to induce a HTR was tested by passive immunization of wild-type mice with PUMA1 (by intravenous tail-vein injection), followed by transfusion with murine KEL1+RBCs from KEL1 transgeneic mouse donors. Compared to a control group that got only PBS, PUMA1 caused a brisk clearance of KEL1+RBCs, after which, the surviving RBCs continued to circulate, as is typical of HTRs in both mice and also in humans (FIG. 13). Thus, PUMA1 specifically binds to KEL1 RBCs, in vivo, with sufficient activity to induce an HTR.

Assay [6] has as its target T2, human Kell glycoprotein, K (KEL1) form. In words: flow cytometry on RBCs (FIGS. 7A, 7B). How it is done:
as §1

For assay [7], the target named is T3, human Kell glycoprotein, k (KEL2) form. Briefly: flow cytometry, indirect immunofluorescence on RBCs. How it is done:
as §1

B1: monoclonal antibody PUMA 3 (antibody, V domains shown)
VH: QVQLKESGPGLLAPSQSLSITCTVSGFSLTSYGVYWVRQPPGKGLEWLGIIWGDGSTNYQSVLRSRLSITKDDSKSQVFLKLNSLQTDDTATYYCAKRGDYDVAYWGQGTLVTVSA
VL: DIVLTQSPASLAVSLGQRAIISCKASQTVSEVGTSLMHWYQQRPGQQPKLLIYRTSNLEAGVPTRFSGSGSRTDFTLNIHPVEEDDAATYYCQQSREFPWTFGGGTRLEIK
notes: Mouse monoclonal antibody from hybridoma
Take B1: the binding result in assay [1], in assay [2] and in assay [3] was “binds” in each case.

B2: monoclonal antibody PUMA 4 (antibody, V domains shown)
VH: EVKLEESGGGLVQPGGSMKLSCVASGFTFSNYWMNWVRQPPEKGLEWVAEIRLNSNNYATHYAESVKGKFTISRDDSKSSVYLQMNDLRAEDTGIYYCTRNWDFAWFDSWGQGTLVTVSA
VL: DIVMTQSHKFMSTSVGDRVSITCKASQDVSTVVAWYQQKPGQSPKLLIYWASTRHTGVPDRFTGSGSGTDYTLTISSVQAEDLALYYCQQHYTTPFTFGSGTKLEIK
notes: as for B1
As for B2, the binding result in assay [4] is listed as “no binding”.

B3: monoclonal antibody PUMA 1 (antibody, V domains shown)
VH: EVQLQQSGPELVKPGASVKMSCKASGYTFTDYYMKWVKQSHGKSLEWIGDLNPNNGDTFYNQKFKGKATLTVDKSSSTAYIQLNSLTSEDSAVYYCAREAGSSFGSSCNYWGQGTTLTVS
VL: SVVMTQTPKFLLVSAGDRVTITCKASQTVSKDVAWYQQQPGQSPKLLIYYASNRYTGVPDRFTGSGYGTDFTFTISTVQAEDLAVYFCQQDYSSPYTFGGGTKLEIK
notes: also called PUMA 2; Puma 2
Regarding B3, the binding result in assay [5] is on record as “binds”; in assay [6], “binds”; in assay [7], “no binding”.
